# The supplement of paper PMC10567573
# B1: CDKN1A (parent)
# chain: RRQTSMTDFYHSKRRLIFSKRKP
# Variants of: B1
# Assay: protein stability index of a GFP-peptide fusion (GPS, HEK-293T) (PSI 1-6); higher = more stable
# Details: c terminus: native
# 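Also: lentivirally expressed fusions sorted by FACS into six bins by GFP to DsRed ratio, PSI derived from sequencing read proportions per bin multiplied by bin number.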
row,Variant,protein stability index
1,RRSTSMTDFYHSKRRLIFSKRKP [Q3S],2.27
2,RRQTSMTDFYHSKTRLIFSKRKP [R14T],1.99
3,RRQTRMTDFYHSKRRLIFSKRKP [S5R],2.53
4,RRQTSMTDFVHSKRRLIFSKRKP [Y10V],2.77
5,RRQTSMTDFYFSKRRLIFSKRKP [H11F],2.93
6,RRQTSMTDFYHSKCRLIFSKRKP [R14C],2.69
7,RRQTSMTDFYHSKRRLIFQKRKP [S19Q],2.08
8,RRQTSMTDFYHSKRRYIFSKRKP [L16Y],1.65
9,RRQTSMTDFYHSKRRLIFRKRKP [S19R],2.46
10,RRQTSMTDFYHSKRRLIFSKGKP [R21G],3.01
11,RRQTSMTDFNHSKRRLIFSKRKP [Y10N],1.72
12,RRQTSMTDFYHGKRRLIFSKRKP [S12G],2.07
13,RRQTSMTDFYHFKRRLIFSKRKP [S12F],1.59
14,RRQTEMTDFYHSKRRLIFSKRKP [S5E],2.5
15,RRLTSMTDFYHSKRRLIFSKRKP [Q3L],4.67
16,RRQTDMTDFYHSKRRLIFSKRKP [S5D],2.95
17,RRQTHMTDFYHSKRRLIFSKRKP [S5H],3.12
18,RRQTSMTDFYHSKNRLIFSKRKP [R14N],2.75
19,RRQTSMTDFYKSKRRLIFSKRKP [H11K],3.46
20,RRQTSMTDFYHSKRRLIFSSRKP [K20S],2.23
21,RRQTSMTDFYHSKRRLIFSKRKW [P23W],3.55
22,RRQTSMFDFYHSKRRLIFSKRKP [T7F],2.06
23,RRQTSMTDFYHSKRRLAFSKRKP [I17A],2.48
24,RRQTSMTDFYHSKRRLIFSERKP [K20E],2.33
25,RRQTSMTDFYHSKRRLIFSKRIP [K22I],2.35

row,Variant,protein stability index
1,RMQTSMTDFYHSKRRLIFSKRKP [R2M],4.02
2,RRQSSMTDFYHSKRRLIFSKRKP [T4S],2.62
3,WRQTSMTDFYHSKRRLIFSKRKP [R1W],2.69
4,RRQTSMTRFYHSKRRLIFSKRKP [D8R],1.14
5,RRQTSMTDFYHSKRRLIQSKRKP [F18Q],1.79
6,RRQTSMTDFYHSKRRLIFSKQKP [R21Q],2.4
7,RRQTSMTDFYHSKRRLYFSKRKP [I17Y],2.76
8,RRQTSMTDFYHSKRRLIFSNRKP [K20N],1.03
9,RRQTSMTDFYHSKRRLIYSKRKP [F18Y],2.46
10,RRQTSMTDFYHSKLRLIFSKRKP [R14L],3.27
11,RRQTSMTDDYHSKRRLIFSKRKP [F9D],2.72
12,RRQTSMTDFYHSKRRLILSKRKP [F18L],1.65
13,RRQTSMTDFYHSKQRLIFSKRKP [R14Q],4.01
14,RRQTSMTDFYDSKRRLIFSKRKP [H11D],1.65
15,RRQTSMTDFYHSKRRLIDSKRKP [F18D],3.34
16,RRQTSMTDFYHSKRRLIFSKRKL [P23L],2.84
17,RRQTSATDFYHSKRRLIFSKRKP [M6A],2.57
18,TRQTSMTDFYHSKRRLIFSKRKP [R1T],3.87
19,KRQTSMTDFYHSKRRLIFSKRKP [R1K],2.57
20,RRQTQMTDFYHSKRRLIFSKRKP [S5Q],2.55
21,RRQTSMTDFYHSKRRLIFSKRMP [K22M],3.93
22,RRQTSMTFFYHSKRRLIFSKRKP [D8F],3.24
23,RRQTSMTDFYHSKRRLIFSKRKA [P23A],1.85
24,RRQTVMTDFYHSKRRLIFSKRKP [S5V],2.27
25,RRQTSMTDFYHSGRRLIFSKRKP [K13G],1.81

row,Variant,protein stability index
1,RRQTSMTDFAHSKRRLIFSKRKP [Y10A],3.44
2,RRQTSMTDFYHSKRRLIFSKLKP [R21L],2.67
3,RRQTSMTDFYHSKRRLSFSKRKP [I17S],2.99
4,RRQTSMTDFYHSKRRLIFSKRKD [P23D],2.49
5,RRQTNMTDFYHSKRRLIFSKRKP [S5N],1.73
6,RRQTSMTDFYHSKRRLIFSKVKP [R21V],3.09
7,RRQWSMTDFYHSKRRLIFSKRKP [T4W],4.11
8,RRQTSFTDFYHSKRRLIFSKRKP [M6F],2.03
9,RRQTSMTDFYHSKRQLIFSKRKP [R15Q],2.41
10,RRQTSMTDFYHSKRRLIFPKRKP [S19P],2.08
11,RRQTSMTDFYHSKRRLIFMKRKP [S19M],2.96
12,RRQTSMTDFYHSVRRLIFSKRKP [K13V],2.27
13,RRQTSMTDFYHSKRRLIFFKRKP [S19F],2.44
14,RRQTSMTDFYHSKKRLIFSKRKP [R14K],4.64
15,RRQTSMTDFYHSKRRLIFSKRKM [P23M],2.46
16,RRQTSMTDFTHSKRRLIFSKRKP [Y10T],3.41
17,MRQTSMTDFYHSKRRLIFSKRKP [R1M],2.04
18,RRQTSMTDFYHSKRRLIFSKEKP [R21E],3.44
19,RRQTSMTDFYHSKRRFIFSKRKP [L16F],3.4
20,RRQTSMTDFYHSKRALIFSKRKP [R15A],2.94
21,RRQTSMTDFYHSERRLIFSKRKP [K13E],3.4
22,RRQTSMTDFYHSFRRLIFSKRKP [K13F],2.44
23,RRQTSMWDFYHSKRRLIFSKRKP [T7W],1.87
24,RRQTSMTDFYHSKHRLIFSKRKP [R14H],4.02
25,RRQTSMTDFYHSKRRLIFSKRLP [K22L],1.74

row,Variant,protein stability index
1,RSQTSMTDFYHSKRRLIFSKRKP [R2S],1.11
2,RRQTSYTDFYHSKRRLIFSKRKP [M6Y],1.92
3,RRQTSMTDFYVSKRRLIFSKRKP [H11V],1.43
4,RRQTSMTDFYHSPRRLIFSKRKP [K13P],3.13
5,RRQTSMTDFYHSKSRLIFSKRKP [R14S],1.83
6,RRQTSMTDFYHSKRDLIFSKRKP [R15D],3.82
7,RRQKSMTDFYHSKRRLIFSKRKP [T4K],2.26
8,RRQTSMTDFYHSKRRLIFWKRKP [S19W],1.71
9,RRQTSMTDFRHSKRRLIFSKRKP [Y10R],3.01
10,ERQTSMTDFYHSKRRLIFSKRKP [R1E],3
11,RPQTSMTDFYHSKRRLIFSKRKP [R2P],3.33
12,RRQLSMTDFYHSKRRLIFSKRKP [T4L],2.1
13,RRQTSMTEFYHSKRRLIFSKRKP [D8E],3.76
14,RNQTSMTDFYHSKRRLIFSKRKP [R2N],3.28
15,RRQTSMTPFYHSKRRLIFSKRKP [D8P],2.14
16,RRQTSMTDCYHSKRRLIFSKRKP [F9C],2.71
17,RWQTSMTDFYHSKRRLIFSKRKP [R2W],2.28
18,RRQTSMTDFYGSKRRLIFSKRKP [H11G],2.88
19,RRQTSMTDFYHSKRRKIFSKRKP [L16K],2.21
20,RRQTSMTKFYHSKRRLIFSKRKP [D8K],3.12
21,RRQTSMTDFYHNKRRLIFSKRKP [S12N],3.42
22,RRQTSMTYFYHSKRRLIFSKRKP [D8Y],1.55
